The target in experiment [1] is T1, Nectin-4 on MDA-MB-175-VII tumor cells (UniProt Q96NY8 32-510, limits assumed).
T1 sequence (looked up): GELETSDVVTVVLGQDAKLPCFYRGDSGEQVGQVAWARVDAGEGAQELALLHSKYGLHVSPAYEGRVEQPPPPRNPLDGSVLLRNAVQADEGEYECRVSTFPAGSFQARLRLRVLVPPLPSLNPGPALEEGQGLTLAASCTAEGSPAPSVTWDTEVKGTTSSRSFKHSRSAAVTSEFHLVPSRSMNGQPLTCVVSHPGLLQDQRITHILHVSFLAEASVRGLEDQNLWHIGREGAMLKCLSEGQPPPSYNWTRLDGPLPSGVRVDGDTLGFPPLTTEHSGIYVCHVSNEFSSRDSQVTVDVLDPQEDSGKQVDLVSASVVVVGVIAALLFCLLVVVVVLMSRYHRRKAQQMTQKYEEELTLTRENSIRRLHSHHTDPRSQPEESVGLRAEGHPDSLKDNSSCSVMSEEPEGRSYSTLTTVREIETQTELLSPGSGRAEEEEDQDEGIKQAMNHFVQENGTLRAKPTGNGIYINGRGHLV
Nature of the experiment: cell-based or functional assay.

The target of experiment [2] is T2, human Nectin-4 on transfected HEK-293 cells (human, UniProt Q96NY8 32-510).
T2 construct: whole, on cells; also called HEK-293 cells transfected with human Nectin-4; Nectin-4-expressing HEK-293 cells
T2 sequence (looked up): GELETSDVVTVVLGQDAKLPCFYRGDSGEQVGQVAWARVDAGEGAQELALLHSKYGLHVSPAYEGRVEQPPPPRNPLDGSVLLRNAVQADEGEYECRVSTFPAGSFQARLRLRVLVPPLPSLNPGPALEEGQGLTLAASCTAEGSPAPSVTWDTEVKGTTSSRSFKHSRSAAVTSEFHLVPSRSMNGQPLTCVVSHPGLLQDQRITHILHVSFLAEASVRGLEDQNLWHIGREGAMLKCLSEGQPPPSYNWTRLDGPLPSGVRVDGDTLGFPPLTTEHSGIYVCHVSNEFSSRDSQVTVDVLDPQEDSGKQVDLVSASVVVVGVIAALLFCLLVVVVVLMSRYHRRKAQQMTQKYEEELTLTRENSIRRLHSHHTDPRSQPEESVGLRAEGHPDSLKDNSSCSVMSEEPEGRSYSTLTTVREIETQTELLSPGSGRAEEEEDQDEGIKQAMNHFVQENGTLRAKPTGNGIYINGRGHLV
Nature of the experiment: flow cytometry on HEK-293 cells transfected with human Nectin-4, anti-huIgG1-PE secondary, MFI (Geo Mean). Here is the method: (§1) After incubations, cells were washed with FW and then analyzed on a flow cytometer.

For experiment [3], the target named is T3, cynomolgus Nectin-4 on transfected HEK-293 cells (cynomolgus, UniProt A0A2K5WES1 32-510).
T3 construct: whole, on cells; also called HEK-293 cells transfected with cynomolgus Nectin-4
T3 sequence: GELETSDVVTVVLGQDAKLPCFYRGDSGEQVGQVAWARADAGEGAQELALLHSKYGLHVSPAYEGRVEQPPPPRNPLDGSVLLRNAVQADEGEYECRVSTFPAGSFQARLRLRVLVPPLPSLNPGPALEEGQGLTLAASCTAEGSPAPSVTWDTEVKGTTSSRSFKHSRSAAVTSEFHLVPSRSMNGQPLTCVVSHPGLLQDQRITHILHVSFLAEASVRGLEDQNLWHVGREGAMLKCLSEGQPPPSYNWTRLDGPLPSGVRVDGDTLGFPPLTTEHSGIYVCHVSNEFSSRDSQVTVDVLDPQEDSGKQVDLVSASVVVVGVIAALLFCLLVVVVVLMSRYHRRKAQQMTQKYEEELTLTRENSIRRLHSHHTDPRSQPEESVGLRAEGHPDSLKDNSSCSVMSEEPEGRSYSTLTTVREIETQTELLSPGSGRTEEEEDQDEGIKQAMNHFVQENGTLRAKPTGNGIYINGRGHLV
Nature of the experiment: flow cytometry on HEK-293 cells transfected with cynomolgus Nectin-4, anti-huIgG1-PE secondary, MFI (Geo Mean). The procedure:
as §1
Background: In flow cytometry, cells or beads pass a laser one at a time.

Experiment [4] addresses T1, Nectin-4 on MDA-MB-175-VII tumor cells. Nature of the experiment: flow cytometry on MDA-MB-175-VII cells (Nectin-4 expressing tumor cell line), anti-huIgG1-PE secondary, MFI (Geo Mean). Here is the method: as §1
Experiment [5] deals with T4, huNectin-1 ECD-hFc (human, UniProt Q15223 31-355).
T4 construct: extracellular domain; Bought (Sino Biological); also called hFc-tagged human Nectin-1 ECD dimeric protein; not shown: human Fc tag
T4 sequence (looked up): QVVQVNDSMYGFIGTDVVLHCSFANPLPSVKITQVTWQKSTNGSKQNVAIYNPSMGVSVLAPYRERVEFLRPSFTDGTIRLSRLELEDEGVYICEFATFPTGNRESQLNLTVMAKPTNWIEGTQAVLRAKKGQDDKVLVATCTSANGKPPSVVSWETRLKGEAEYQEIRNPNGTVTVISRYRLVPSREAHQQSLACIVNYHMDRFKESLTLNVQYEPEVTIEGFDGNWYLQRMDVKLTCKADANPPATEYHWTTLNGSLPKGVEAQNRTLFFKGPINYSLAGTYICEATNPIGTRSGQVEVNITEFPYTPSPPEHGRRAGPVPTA
Nature of the experiment: BLI (Octet Red 96), biotinylated hzD6.2C on streptavidin biosensors, dimeric ECD-hFc in solution. Here is the method:
(§2) Analysis of hzD6.2C monoclonal antibody (mAb) for binding to human Nectin-1, Nectin-2, Nectin-3, and Nectin-4 extracellular domains (ECDs) was performed using Octet® Red 96 instrument (ForteBio, Inc.). Biotinylated hzD6.2C mAb was immobilized on streptavidin biosensors and incubated with hFc-tagged human Nectin-1, -2, -3, and -4 ECD dimeric proteins (Sino Biological) at varying concentrations ranging from 1.2 nM to 300 nM in PBS/1% BSA/0.2% Tween 20. The experimental measurements were performed as follows: (1) baseline acquisition (30 s); (2) biotinylated hzD6.2C mAb loading onto streptavidin biosensor (120 s); (3) second baseline acquisition (30 s); (4) association of interacting dimeric Nectin 1/2/3/4 ECD proteins for kₒₙ measurement (90 s); and (5) dissociation of interacting dimeric ECDs for koff measurement (180 s). The interacting dimeric Nectin ECD proteins were used at 5-6 concentrations of 3-fold concentration series. Data were analyzed using Octet® Data Analysis Sofware 9.0 (ForteBio, Inc.) and fitted to the 1:1 binding model. Equilibrium dissociation constants (KD) were calculated by the ratio of […].
A general note: Biolayer interferometry detects binding as a change in optical thickness at a sensor tip.

The target of experiment [6] is T5, huNectin-2 ECD-hFc (human, UniProt Q92692 32-360).
T5 construct: extracellular domain; Bought (Sino Biological); also called hFc-tagged human Nectin-2 ECD dimeric protein; not shown: human Fc tag
T5 sequence (looked up): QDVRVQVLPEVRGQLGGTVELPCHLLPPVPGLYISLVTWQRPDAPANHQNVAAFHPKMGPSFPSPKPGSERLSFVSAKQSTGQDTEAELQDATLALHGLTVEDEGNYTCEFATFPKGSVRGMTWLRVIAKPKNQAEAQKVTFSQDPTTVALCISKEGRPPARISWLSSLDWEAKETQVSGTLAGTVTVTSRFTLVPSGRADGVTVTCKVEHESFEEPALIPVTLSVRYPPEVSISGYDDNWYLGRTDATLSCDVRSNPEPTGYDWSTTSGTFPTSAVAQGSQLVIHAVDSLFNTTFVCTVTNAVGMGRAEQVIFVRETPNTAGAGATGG
The experiment is described as above. The procedure: as §2

In experiment [7] the target is T6, huNectin-3 ECD-hFc (human, UniProt Q9NQS3 58-404).
T6 construct: extracellular domain; Bought (Sino Biological); also called hFc-tagged human Nectin-3 ECD dimeric protein; not shown: human Fc tag
T6 sequence (Q9NQS3 58-404): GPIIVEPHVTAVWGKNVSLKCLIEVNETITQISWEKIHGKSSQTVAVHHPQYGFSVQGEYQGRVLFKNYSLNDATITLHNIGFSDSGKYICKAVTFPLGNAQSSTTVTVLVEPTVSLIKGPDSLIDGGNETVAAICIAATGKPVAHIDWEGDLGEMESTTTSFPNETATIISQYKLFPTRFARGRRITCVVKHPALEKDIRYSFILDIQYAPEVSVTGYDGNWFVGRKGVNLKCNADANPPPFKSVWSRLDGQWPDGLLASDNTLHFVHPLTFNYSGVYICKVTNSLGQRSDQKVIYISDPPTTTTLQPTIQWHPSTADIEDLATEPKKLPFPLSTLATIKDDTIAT
The experiment is described as above. Here is the method: as §2

Experiment [8] concerns the target T7, huNectin-4 ECD-hFc (human, UniProt Q96NY8 32-349).
T7 construct: extracellular domain; Bought (Sino Biological); also called hFc-tagged human Nectin-4 ECD dimeric protein; human Nectin-4 ECD; not shown: human Fc tag
T7 sequence (looked up): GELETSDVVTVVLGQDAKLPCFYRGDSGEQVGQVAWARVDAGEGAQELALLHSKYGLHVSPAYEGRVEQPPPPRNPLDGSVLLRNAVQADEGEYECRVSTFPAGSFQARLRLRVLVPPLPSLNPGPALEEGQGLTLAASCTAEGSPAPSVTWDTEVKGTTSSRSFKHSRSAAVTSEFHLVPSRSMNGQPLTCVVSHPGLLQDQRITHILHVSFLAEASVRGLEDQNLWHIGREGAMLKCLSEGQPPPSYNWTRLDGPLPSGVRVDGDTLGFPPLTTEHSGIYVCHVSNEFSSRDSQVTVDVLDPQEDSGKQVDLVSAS
Put plainly: BLI (Octet Red 96), biotinylated hzD6.2C on streptavidin biosensors, dimeric ECD-hFc in solution, 1:1 model, KD with avidity. The procedure: as §2

Some results are limits rather than exact numbers.

B1: hzD6.2C-Compound 2.14 (anti-Nectin-4-TLR8 agonist immunoconjugate) (antibody, V domains shown)
VH: EVQLVESGGGLVQPGGSLRLSCAASGFTFSNYDMSWVRQAPGKGLEWVATISSGGSYTYYVDSVKGRFTISRDNAKNSLYLQMNSLRAEDTAVYYCARQELGSYYAMDYWGQGTTVTVSS
VL: DIVMTQTPLSLPVTPGEPASISCRSSQSIVHSNANTYLEWYLQKPGQSPQLLIYKVSNRFSGVPDRFSGSGSGTDFTLKISRVEAEDVGVYYCFQGSHVPYTFGGGTKVEIKR
notes: hzD6.2C conjugated to linker-TLR8 agonist Compound 2.14
Take B1: the “TNF-α production from human PBMCs co-cultured with MDA-MB-175-VII cells, EC50” value (“TNF-α production” below) in experiment [1] was 0.37 nM. Besides, the EC50 in experiment [2] is 0.034 µg/mL; in experiment [3], 0.016 µg/mL; in experiment [4], 0.0095 µg/mL.

B2: humanized D6C mAb with hzD6.2C VL (G34A), human IgG1 / human kappa (antibody, V domains shown)
VH: EVQLVESGGGLVQPGGSLRLSCAASGFTFSNYDMSWVRQAPGKGLEWVATISSGGSYTYYVDSVKGRFTISRDNAKNSLYLQMNSLRAEDTAVYYCARQELGSYYAMDYWGQGTTVTVSS
VL: DIVMTQTPLSLPVTPGEPASISCRSSQSIVHSNANTYLEWYLQKPGQSPQLLIYKVSNRFSGVPDRFSGSGSGTDFTLKISRVEAEDVGVYYCFQGSHVPYTFGGGTKVEIKR
notes: also called hzD6.2C mAb
For the molecule B2, the binding result in experiment [5], in experiment [6] and in experiment [7] was “no binding (tested: 1.2 nM to 300 nM)” each time. The half-maximal effective concentration (EC50) was determined as 0.014 µg/mL in experiment [2], 0.017 µg/mL in experiment [3] and 0.012 µg/mL in experiment [4]. Besides, in experiment [8], the Kd is less than 0.001 nM.

B3: humanized D6C mAb with hzD6.1C VL (I2V), human IgG1 / human kappa (antibody, V domains shown)
VH: EVQLVESGGGLVQPGGSLRLSCAASGFTFSNYDMSWVRQAPGKGLEWVATISSGGSYTYYVDSVKGRFTISRDNAKNSLYLQMNSLRAEDTAVYYCARQELGSYYAMDYWGQGTTVTVSS
VL: DVVMTQTPLSLPVTPGEPASISCRSSQSIVHSNGNTYLEWYLQKPGQSPQLLIYKVSNRFSGVPDRFSGSGSGTDFTLKISRVEAEDVGVYYCFQGSHVPYTFGGGTKVEIKR
notes: also called hzD6.IC
For B3, the EC50 in experiment [2] was 0.02 µg/mL; in experiment [3], 0.016 µg/mL; in experiment [4] it was 0.0097 µg/mL.

B4: hzD6.1C-Compound 2.14 (anti-Nectin-4-TLR8 agonist immunoconjugate) (antibody, V domains shown)
VH: EVQLVESGGGLVQPGGSLRLSCAASGFTFSNYDMSWVRQAPGKGLEWVATISSGGSYTYYVDSVKGRFTISRDNAKNSLYLQMNSLRAEDTAVYYCARQELGSYYAMDYWGQGTTVTVSS
VL: DVVMTQTPLSLPVTPGEPASISCRSSQSIVHSNGNTYLEWYLQKPGQSPQLLIYKVSNRFSGVPDRFSGSGSGTDFTLKISRVEAEDVGVYYCFQGSHVPYTFGGGTKVEIKR
notes: hzD6.1C conjugated to linker-TLR8 agonist Compound 2.14
For B4, the “TNF-α production” value in experiment [1] worked out at 0.33 nM. Further, the EC50 in experiment [2] amounted to 0.069 µg/mL; in experiment [3], 0.023 µg/mL; in experiment [4], 0.0086 µg/mL.

B5: D6C IgG1-Compound 2.14 (parental antibody TLR8 agonist conjugate) (antibody, V domains shown)
VH: EVMLVESGGALVKPGGSLKLSCVASGFTFSNYDMSWVRQTPEKRLEWVATISSGGSYTYYVDSVKGRFTISRDNARNTLHLQMSSLRSKDTAMYYCARQELGSYYAMDYWGQGTSVTVSS
VL: DVVMTQTPLSLPVSLGDQASISCRSSQSIVHSNGNTYLEWYLQKPGQSPKLLIYKVSNRFSGVPDRFSGSGSGTDFTLKISRVEAEDLGVYYCFQGSHVPYTFGGGTKLEIK
notes: IgG1
Consider B5, for which, in experiment [1], the “TNF-α production” value came to 0.83 nM. In addition, the values for the EC50 in experiment [2], in experiment [3] and in experiment [4] were 0.049 µg/mL, 0.019 µg/mL and 0.011 µg/mL, respectively.

B6: D6C parental chimeric anti-Nectin-4 antibody (D6C IgG1) (antibody, V domains shown)
VH: EVMLVESGGALVKPGGSLKLSCVASGFTFSNYDMSWVRQTPEKRLEWVATISSGGSYTYYVDSVKGRFTISRDNARNTLHLQMSSLRSKDTAMYYCARQELGSYYAMDYWGQGTSVTVSS
VL: DVVMTQTPLSLPVSLGDQASISCRSSQSIVHSNGNTYLEWYLQKPGQSPKLLIYKVSNRFSGVPDRFSGSGSGTDFTLKISRVEAEDLGVYYCFQGSHVPYTFGGGTKLEIK
notes: Called the parental chimeric antibody; also called chimeric D6C
B6: the EC50 turned out to be 0.03 µg/mL in experiment [2], 0.018 µg/mL in experiment [3] and 0.01 µg/mL in experiment [4].

The term EC50 denotes the concentration at which the effect is half-maximal. A low value points to a more potent agent.

(Values after patent publication US20210275683A1 (SILVERBACK THERAPEUTICS, published 2021).)
